Source: patent publication US8071348B2, “Protein tyrosine phosphatase substrate-trapping double mutant and uses thereof” (Albert Einstein College of Medicine of Yeshiva University, priority 2002, dated 2011)
[ ]: non-standard residue; d: D form. F2Pmp = N[C@@H](Cc1ccc(C(F)(F)P(=O)(O)O)cc1)C(=O)O

Assays:
[1] = target: T1, Ac-Asp-Ala-Asp-Glu-F2Pmp-Leu-NH2 (Homo sapiens, UniProt P18031, D181A/Q262A); assay: Isothermal titration calorimetry, binding of PTP1B and mutants to F2Pmp peptide; details: ITC, pH 7.0, ionic strength 0.15 M, 25° C.; read-out: dissociation constant, Kd
T1 construct: The catalytic domain of PTP1B (residues 1 to 321) was used for in vitro study; made in house; host or cells: E. coli (pT7-7 plasmids)
T1 sequence (P18031 1-321 D181A/Q262A): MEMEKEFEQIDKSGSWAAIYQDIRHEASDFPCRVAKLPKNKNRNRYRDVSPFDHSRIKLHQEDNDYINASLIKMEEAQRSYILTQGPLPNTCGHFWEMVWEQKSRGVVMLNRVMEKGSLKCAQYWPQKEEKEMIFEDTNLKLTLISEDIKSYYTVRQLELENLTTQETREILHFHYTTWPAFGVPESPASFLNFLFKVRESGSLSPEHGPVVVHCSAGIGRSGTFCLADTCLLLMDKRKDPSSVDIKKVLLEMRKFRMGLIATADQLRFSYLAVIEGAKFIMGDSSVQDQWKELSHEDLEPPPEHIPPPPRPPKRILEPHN

[2] = target: Ac-Asp-Ala-Asp-Glu-F2Pmp-Leu-NH2; assay: as above; details: ITC, 25° C. and pH 7.0; data from this study

B1: PTP1B/D181A/Q262A, catalytic domain (residues 1 to 321) (enzyme, human, UniProt P18031 1-321, looked up)
chain: T1 sequence (P18031 1-321 D181A/Q262A)
notes: range 1-321; Used in vitro (ITC, kinetics); also called PTP1B substrate-trapping double mutant
B1 was tested, and the Kd [1] was 6.8 nM and the Kd [2] was 6.8 ± 2.3 nM.
